Tests used:
[1] = target: C113T109N biotin labeled HCV core peptide (hepatitis C virus); assay: EIA; Ab 62.5 ng/mL captured on anti-mouse Fc; bt-peptide 500 ng/mL
[2] = target: Mut6T110S biotin labeled HCV core peptide (hepatitis C virus); assay: as above
[3] = target: Mut1T110N biotin labeled HCV core peptide (hepatitis C virus); assay: as above
[4] = target: 92-133 biotin labeled HCV core peptide (hepatitis C virus) (UniProt P26664); assay: as above
[5] = target: C113T109N biotin labeled HCV core peptide (hepatitis C virus); assay: EIA; Ab 3.906 ng/mL captured on anti-mouse Fc; bt-peptide 500 ng/mL
[6] = target: Mut6T110S biotin labeled HCV core peptide (hepatitis C virus); assay: as above
[7] = target: Mut1T110N biotin labeled HCV core peptide (hepatitis C virus); assay: as above
[8] = target: 92-133 biotin labeled HCV core peptide (hepatitis C virus) (UniProt P26664); assay: as above
[9] = target: C113T109N biotin labeled HCV core peptide (hepatitis C virus); assay: EIA; Ab 1.953 ng/mL captured on anti-mouse Fc; bt-peptide 500 ng/mL
[10] = target: Mut6T110S biotin labeled HCV core peptide (hepatitis C virus); assay: as above
[11] = target: Mut1T110N biotin labeled HCV core peptide (hepatitis C virus); assay: as above
[12] = target: 92-133 biotin labeled HCV core peptide (hepatitis C virus) (UniProt P26664); assay: as above
[13] = target: C113T109N biotin labeled HCV core peptide (hepatitis C virus); assay: EIA; Ab 31.25 ng/mL captured on anti-mouse Fc; bt-peptide 500 ng/mL
[14] = target: Mut6T110S biotin labeled HCV core peptide (hepatitis C virus); assay: as above
[15] = target: Mut1T110N biotin labeled HCV core peptide (hepatitis C virus); assay: as above
[16] = target: 92-133 biotin labeled HCV core peptide (hepatitis C virus) (UniProt P26664); assay: as above
[17] = target: C113T109N biotin labeled HCV core peptide (hepatitis C virus); assay: EIA; Ab 250 ng/mL captured on anti-mouse Fc; bt-peptide 500 ng/mL
[18] = target: Mut6T110S biotin labeled HCV core peptide (hepatitis C virus); assay: as above
[19] = target: Mut1T110N biotin labeled HCV core peptide (hepatitis C virus); assay: as above
[20] = target: 92-133 biotin labeled HCV core peptide (hepatitis C virus) (UniProt P26664); assay: as above
[21] = target: C113T109N biotin labeled HCV core peptide (hepatitis C virus); assay: EIA; Ab 125 ng/mL captured on anti-mouse Fc; bt-peptide 500 ng/mL
[22] = target: Mut6T110S biotin labeled HCV core peptide (hepatitis C virus); assay: as above
[23] = target: Mut1T110N biotin labeled HCV core peptide (hepatitis C virus); assay: as above
[24] = target: 92-133 biotin labeled HCV core peptide (hepatitis C virus) (UniProt P26664); assay: as above
[25] = target: C113T109N biotin labeled HCV core peptide (hepatitis C virus); assay: EIA; Ab 15.625 ng/mL captured on anti-mouse Fc; bt-peptide 500 ng/mL
[26] = target: Mut6T110S biotin labeled HCV core peptide (hepatitis C virus); assay: as above
[27] = target: Mut1T110N biotin labeled HCV core peptide (hepatitis C virus); assay: as above
[28] = target: 92-133 biotin labeled HCV core peptide (hepatitis C virus) (UniProt P26664); assay: as above
[29] = target: C113T109N biotin labeled HCV core peptide (hepatitis C virus); assay: EIA; Ab 2000 ng/mL captured on anti-mouse Fc; bt-peptide 500 ng/mL
[30] = target: Mut6T110S biotin labeled HCV core peptide (hepatitis C virus); assay: as above
[31] = target: Mut1T110N biotin labeled HCV core peptide (hepatitis C virus); assay: as above
[32] = target: 92-133 biotin labeled HCV core peptide (hepatitis C virus) (UniProt P26664); assay: as above

HCV C11-3 monoclonal antibody gave a signal at 492 nm [1] of 0.202 OD 492 nm, a signal at 492 nm [2] of 2.11 OD 492 nm and a signal at 492 nm [3] of 0.155 OD 492 nm. It also gave a signal at 492 nm [4] of 1.92 OD 492 nm, a signal at 492 nm [5] of 0.0833 OD 492 nm and a signal at 492 nm [6] of 0.227 OD 492 nm. For the same substance, the signal at 492 nm [7] was 0.079 OD 492 nm, the signal at 492 nm [8] was 0.183 OD 492 nm and the signal at 492 nm [9] was 0.114 OD 492 nm. The signal at 492 nm [10] was 0.0964 OD 492 nm, the signal at 492 nm [11] was 0.0854 OD 492 nm and the signal at 492 nm [12] was 0.134 OD 492 nm. It also gave a signal at 492 nm [13] of 0.16 OD 492 nm, a signal at 492 nm [14] of 1.54 OD 492 nm and a signal at 492 nm [15] of 0.107 OD 492 nm. It also gave a signal at 492 nm [16] of 1.55 OD 492 nm, a signal at 492 nm [17] of 0.0963 OD 492 nm and a signal at 492 nm [18] of 1.83 OD 492 nm. For the same substance, the signal at 492 nm [19] was 0.0857 OD 492 nm, the signal at 492 nm [20] was 1.68 OD 492 nm and the signal at 492 nm [21] was 0.147 OD 492 nm. The signal at 492 nm [22] was 2.02 OD 492 nm, the signal at 492 nm [23] was 0.127 OD 492 nm and the signal at 492 nm [24] was 1.83 OD 492 nm. For the same substance, the signal at 492 nm [25] was 0.116 OD 492 nm, the signal at 492 nm [26] was 0.807 OD 492 nm and the signal at 492 nm [27] was 0.11 OD 492 nm. It also gave a signal at 492 nm [28] of 1.01 OD 492 nm, a signal at 492 nm [29] of 0.0707 OD 492 nm and a signal at 492 nm [30] of 1.73 OD 492 nm. For the same substance, the signal at 492 nm [31] was 0.0915 OD 492 nm and the signal at 492 nm [32] was 1.45 OD 492 nm.

From US20170052184A1
